Experimental data from article PMC12032302 (2025).

Target: HA-NEK7 (mouse NIMA-related kinase 7, wild type) (mouse, UniProt Q9ES74 1-302)
Assay: BLI

Sequence of HA-NEK7 (mouse NIMA-related kinase 7, wild type) (Q9ES74 whole entry): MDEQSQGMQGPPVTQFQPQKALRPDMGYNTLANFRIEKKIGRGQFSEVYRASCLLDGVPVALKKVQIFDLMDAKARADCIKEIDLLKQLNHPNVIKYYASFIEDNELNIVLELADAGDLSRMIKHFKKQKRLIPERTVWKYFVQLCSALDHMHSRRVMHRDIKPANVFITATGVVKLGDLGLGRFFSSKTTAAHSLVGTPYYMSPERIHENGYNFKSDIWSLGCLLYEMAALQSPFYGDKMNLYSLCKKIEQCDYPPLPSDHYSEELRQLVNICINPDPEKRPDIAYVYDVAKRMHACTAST

Kd: 197 µM
B1: A20-derived peptide P-II (peptide)
peptide: KLVALKTNGDGNCLMHAACQYMWGVQDTD
